# Columns and labels:
# [1] = target: 6xHis-tagged Gifsy-1 prophage repressor GfoR (Salmonella enterica serovar Typhimurium strain ATCC14028, prophage Gifsy-1); test: SEC; Sephadex G75 column in IPE buffer (Tris-HCl 20 mM pH 8, NaCl 500 mM, Igepal 0.1%, imidazole 250 mM); about 10 ug of Ni-NTA-purified repressor (cells grown without arabinose) or co-expressed, co-purified repressor-antirepressor complex (with arabinose); calibrated with alpha-chymotrypsin, ovalbumin and BSA; fractions on SDS gel
# [2] = tested on: T1, GtgR (Gifsy-2 phage repressor; also written GftR) (Salmonella enterica ATCC14028, Gifsy-2 prophage), ORF:1b72f8f1; test: EMSA; conditions: 20 mM Tris-HCl pH 7.5, 50 mM NaCl, 0.2 mM EDTA (5x stock in Methods: 1 mM), 1 mM MgCl2, 5% glycerol, PMSF, 50 ug/mL sonicated salmon sperm DNA; room …
# T1 sequence: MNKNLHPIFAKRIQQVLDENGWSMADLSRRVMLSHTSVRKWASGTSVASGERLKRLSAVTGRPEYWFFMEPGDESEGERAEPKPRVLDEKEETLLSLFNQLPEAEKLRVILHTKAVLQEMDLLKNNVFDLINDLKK
substance,measurement,setting,value
3xFLAG-tagged Gifsy-1 antirepressor GfoA (natural protein),stoichiometry N (GfoA per GfoR (2:2)),[1],1
6xHis-tagged Gifsy-1 prophage repressor GfoR (natural protein),stoichiometry N,[1],2
GTTCGCCGATGCTCATTTGAGTCATGTGGTTACTGATTTTGATTTTTAATTGGTTGTCCATTTGGCTCTCCAGTTCTACGAGTTGGTAGCTGGAGATTATCACGTAAAACTTTAGGTTCCAACAAAAATCAATCTAATAGTTCCAATGAATAAAGAAACTGAAGGTTGTAAAATGTGAATATGAACAAAAATCTTCATCCCATTTTCGCCAAGCGTATCCAGCAAGTTCTGGATGAGAACGGCTGGTCTATGGCTGACCTCTCACGG (double strand) [Gifsy-2 right operator fragment (267 bp)],binding,[2],binds
